{"source": "paper PMC5709735", "about": "“Real‐time detection of condensin‐driven DNA compaction reveals a multistep binding mechanism” (The EMBO Journal, 2017)", "system": "T1, Nc1ncnc2c1ncn2[C@@H]1O[C@H](COP(=O)(O)OP(=O)(O)OP(=O)(O)O)[C@@H](O)[C@H]1O", "T1 construct": "pentameric holocomplex overexpressed in budding yeast from galactose-inducible promoters; His12 tag on Brn1, triple StrepII tag on Smc4; gel-filtered monomeric complexes; with Condensin complex subunit 2; Condensin complex subunit 1; Condensin complex subunit 3", "assay": "single-molecule magnetic tweezers, DNA compaction rate vs ATP, Michaelis-Menten fit", "assay_type": "biochemical, Saccharomyces cerevisiae", "conditions": "8.6 nM condensin, tethered 20-kb DNA under constant force, 10 mM HEPES-NaOH pH 7.9, 125 mM NaCl, 5 mM MgCl2, 1 mM DTT, error is 95% confidence interval, read-out is compaction rate, not ATP turnover", "data": [{"substance": "S. cerevisiae condensin holocomplex (Smc2–Smc4–Brn1–Ycs4–Ycg1) (Saccharomyces cerevisiae S288C)", "values": [{"measurement": "Km", "result": "1400 ± 1500", "unit": "µM"}]}]}
